The results in this text go back to paper PMC9238395, “Identification and Tetramer Structure of Hemin-Binding Protein SPD_0310 Linked to Iron Homeostasis and Virulence of Streptococcus pneumoniae” (mSystems, 2022).

The labels stand for the following.
B4: SPD_0310 (natural protein)
chain: MKKQAFSSEQYLNLQRDHILERINQFDGKLYLEFGGKMLEDFHAARVLPGYEPDNKIKLLQELKEQVEVVIAINASNIEHSKARGDLGISYDQEVLRLIDKFNELGIFVGSVVITQYAGQPAADAFRNQLEKNGIDSYLHYPIKGYPTDMDHIISPEGMGKNDYIKTSRNLIVVTAPGPGSGKLATCMSNMYHDQINGIKSGYAKFETFPIWNLPLHHPVNLAYEAATADLDDVNMIDPFHLQTYGETTVNYNRDIEIFPVLKRMLERILGKSPYASPTDMGVNMVGFAITDDEAAVEASKQEIIRRYYQTVLDFKAEKVGEAAVKKIELLMNDLGITPADRKVAVVARQKAEETGGPALAFELPNGEIVTGKNSELFGPTAAALINAIKKSADIAKEVKLIEPEVVKPIQGLKIDHLGSRNPRLHSNEILIALAITATENPDAARAMEELGNLKGSEAHSTIILTDEDKNVLRKLGINVTFDPYYQYDRLYRK
notes: SPD_0310, hypothetical protein of the UPF0371 family, S. pneumoniae D39; spd_0310 gene cloned from genomic DNA into pGEX-4T-1 (BamH I/Sal I); Homotetramer by crystal structure and DLS; also called apo-0310; apo-SPD_0310

In data set [1] the target is SPD_0310 (S. pneumoniae D39) (UniProt Q04MC1). Kind of data set: SPR; OpenSPR; SPD_0310 immobilised on a gold nanoparticle COOH sensor chip; analytes in 1× PBS, 30 μL/min; regeneration with 0.5 to ~10 mM HCl; 1:1 model. (In general: SPR reads the build-up and loss of mass on a sensor chip optically.)
The target of data set [2] is T1, SPD_0310 (Streptococcus pneumoniae, UniProt Q04MC1, E40A/R307A).
T1 sequence (Q04MC1 1-494 E40A/R307A): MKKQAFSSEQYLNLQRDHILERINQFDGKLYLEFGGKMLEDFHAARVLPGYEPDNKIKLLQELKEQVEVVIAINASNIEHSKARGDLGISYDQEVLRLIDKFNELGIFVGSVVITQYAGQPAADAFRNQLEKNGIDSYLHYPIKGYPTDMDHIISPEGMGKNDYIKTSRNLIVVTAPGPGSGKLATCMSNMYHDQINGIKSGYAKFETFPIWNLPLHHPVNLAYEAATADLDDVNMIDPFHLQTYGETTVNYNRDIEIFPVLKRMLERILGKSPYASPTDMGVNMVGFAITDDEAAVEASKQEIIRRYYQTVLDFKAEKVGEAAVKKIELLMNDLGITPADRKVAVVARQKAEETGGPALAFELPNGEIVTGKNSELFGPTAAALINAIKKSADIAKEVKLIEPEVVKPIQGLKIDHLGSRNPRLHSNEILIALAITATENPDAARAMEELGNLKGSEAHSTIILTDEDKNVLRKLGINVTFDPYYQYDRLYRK
Kind of data set: fluorescence quenching titration. Type of data set: binding.

Data set [3] addresses T2, SPD_0310 (Streptococcus pneumoniae, UniProt Q04MC1).
T2 construct: recombinant SPD_0310 expressed from pGEX-4T-1, GST tag removed with thrombin; homotetramer
Kind of data set: SPR; also dialysis/ICP-MS, hemin-agarose pulldown, UV-Vis shift, CD thermal shift, stopped-flow fluorescence. Type of data set: binding.

Data set [4] deals with T3, SPD_0310 (Streptococcus pneumoniae, UniProt Q04MC1, M38A/L39A/G88A/R97A).
T3 sequence (Q04MC1 1-494 M38A/L39A/G88A/R97A): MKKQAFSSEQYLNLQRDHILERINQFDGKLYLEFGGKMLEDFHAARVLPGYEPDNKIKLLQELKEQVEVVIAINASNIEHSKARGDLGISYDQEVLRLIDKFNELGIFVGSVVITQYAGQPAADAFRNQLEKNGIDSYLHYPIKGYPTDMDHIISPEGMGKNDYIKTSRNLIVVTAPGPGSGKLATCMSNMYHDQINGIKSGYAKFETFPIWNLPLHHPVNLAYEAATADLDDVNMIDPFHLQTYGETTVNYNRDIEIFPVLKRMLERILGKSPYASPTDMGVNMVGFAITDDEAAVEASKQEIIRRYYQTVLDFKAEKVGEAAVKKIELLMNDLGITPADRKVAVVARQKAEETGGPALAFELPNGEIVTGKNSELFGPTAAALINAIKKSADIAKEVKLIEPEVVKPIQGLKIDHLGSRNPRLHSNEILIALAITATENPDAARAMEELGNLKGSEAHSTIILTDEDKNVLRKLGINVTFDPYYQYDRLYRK
Kind of data set: fluorescence quenching titration. Type of data set: binding.

Data set [5] has as its target B4. Kind of data set: SPR; OpenSPR; SPD_0310 immobilised on a gold nanoparticle COOH sensor chip; analytes in 1× PBS, 30 μL/min; regeneration with 0.5 to ~10 mM HCl; 1:1 model. To be noted: both partners purified.
Data set [6] concerns the molecule itself. Kind of data set: dynamic light scattering; fresh SPD_0310 in the native state, 3 μM in 1× PBS, 25°C.

As usually defined, the Kd is the constant that tells how readily two partners part at equilibrium. The molecule bovine lactoferrin (natural protein) returned a Kd in data set [1] of 303 nM.
Consider `C=CC1=C(C)C2=Cc3c(C=C)c(C)c4[n]3[Fe]([Cl])[n]3c(c(C)c(CCC(=O)O)c3=CC3=NC(=C4)C(C)=C3CCC(=O)O)=CC1=N2` [hemin], for which the “% of WT binding constant” value at SPD_0310 [2] is 11 % of WT binding constant; at SPD_0310 [4], 56 % of WT binding constant. Besides, the Kd at SPD_0310 [3] was 96.9 nM.

B1: SPD_0226 (natural protein)
chain: MTVGLSYEDSAVKLLNDGANIKVVYPKEGTVFLPASAAIVKKSKNMENAKKFIDFIISQEVQDTLGTTTTNRPVRKNAKTSENMKPIDKIKTLTEDYDYVIKNKSDIVKKYNEVFTDIQSKQ
notes: SPD_0226, intracellular iron transporter of S. pneumoniae D39
Molecule B1 yielded a Kd with SPD_0310 [5] of 1070 ± 100 nM.

B2: GAPDH (natural protein, S. pneumoniae D39, UniProt A0A0H2US80 1-335, looked up)
chain: MVVKVGINGFGRIGRLAFRRIQNVEGVEVTRINDLTDPVMLAHLLKYDTTQGRFDGTVEVKEGGFEVNGKFIKVSAERDPEQIDWATDGVEIVLEATGFFAKKEAAEKHLKGGAKKVVITAPGGNDVKTVVFNTNHDVLDGTETVISGASCTTNCLAPMAKALQDNFGVVEGLMTTIHAYTGDQMILDGPHRGGDLRRARAGAANIVPNSTGAAKAIGLVIPELNGKLDGSAQRVPTPTGSVTELVAVLEKNVTVDEVNAAMKAASNESYGYTEDPIVSSDIVGMSYGSLFDATQTKVLDVDGKQLVKVVSWYDNEMSYTAQLVRTLEYFAKIAK
notes: GAPDH (Gap) of S. pneumoniae D39, recombinant; also called Gly-3-pho dehydrogenase; source: expressed and purified using the GST system
In the data set with SPD_0310 [5], B2 had a Kd of 103 ± 1.29 nM.

B3: SPD_0227 (natural protein)
chain: MNIEGYSDLLKPELKGKIATADPANSSSAFAQLTNMLQAQGGYKDDKAWSYVKDLFTLIDGIVK
notes: SPD_0227, intracellular iron transporter of S. pneumoniae D39
As to B3, the Kd with SPD_0310 [5] worked out at 420 ± 30 nM.
For orientation: stoichiometry N means the number of molecules, sites or subunits per partner or assembly. In the case of B4, the “stoichiometry N” value in data set [6] is 4.

B5: SPD_0090 (natural protein, S. pneumoniae D39, UniProt A0A0H2ZQK8 1-491, looked up)
chain: CGNLTGNSKKAADSGDKPVIKMYQIGDKPDNLDELLANANKIIEEKVGAKLDIQYLGWGDYGKKMSVITSSGENYDIAFADNYIVNAQKGAYADLTELYKKEGKDLYKALDPAYIKGNTVNGKIYAVPVAANVASSQNFAFNGTLLAKYGIDISGVTSYETLEPVLKQIKEKAPDVVPFAIGKVFIPSDNFDYPVANGLPFVIDLEGDTTKVVNRYEVPRFKEHLKTLHKFYEAGYIPKDVATSDTSFDLQQDTWFVREETVGPADYGNSLLSRVANKDIQIKPITNFIKKNQTTQVANFVISNNSKNKEKSMEILNLLNTNPELLNGLVYGPEGKNWEKIEGKENRVRVLDGYKGNTHMGGWNTGNNWILYINENVTDQQIENSKKELAEAKESPALGFIFNTDNVKSEISAIANTMQQFDTAINTGTVDPDKAIPELMEKLKSEGAYEKVLNEMQKQYDEFLKNKK
notes: source: expressed and purified using the GST system
Molecule B5 yielded an equilibrium dissociation constant (Kd) in the data set with SPD_0310 [5] of 3.41 ± 0.01 nM.

B6: SPD_1609 (natural protein, S. pneumoniae D39, UniProt A0A0H2ZL87 1-355, looked up)
chain: CSGGSNSTTASSSEEKADKSQELVIYSNSVSNGRGDWLTAKAKEAGFNIKMVDIAGAQLADRVIAEKNNAVADMVFGIGAVDSNKIRDQKLLVQYKPKWLDKIDQSLSDKDNYYNPVIVQPLVLIGAPDVKEMPKDWTELGSKYKGKYSIYGLQGGTGRAILASILVRYLDEKGDLGVSEKGWEVAKEYFANAYTLQKGESSVVKALDKESPIQYGMIWGSGALIGQKEQNVEFKVMTPEIGVPFVTEQTMVLSTSKKQALAKEFIDWFGQSEIQVEYSKKFGSIPANKDALKELPEDTKKFVDQVKPQNIDWEAVGKHLDEWVEKAELEYVK
notes: as for B5
Molecule B6 yielded a Kd with SPD_0310 [5] of 6.92 ± 0.08 nM.
